According to patent US10772972B2, “Anti-STEAP2 antibody drug conjugates, and compositions and uses thereof” (Regeneron Pharmaceuticals, Inc., priority 2016, dated 2020):

T1: hSTEAP2 fused to GFP (Homo sapiens, UniProt Q8NFT2)
T1 construct: expressed in transfected cells; host or cells: HEK293
T1 sequence (Q8NFT2 1-490): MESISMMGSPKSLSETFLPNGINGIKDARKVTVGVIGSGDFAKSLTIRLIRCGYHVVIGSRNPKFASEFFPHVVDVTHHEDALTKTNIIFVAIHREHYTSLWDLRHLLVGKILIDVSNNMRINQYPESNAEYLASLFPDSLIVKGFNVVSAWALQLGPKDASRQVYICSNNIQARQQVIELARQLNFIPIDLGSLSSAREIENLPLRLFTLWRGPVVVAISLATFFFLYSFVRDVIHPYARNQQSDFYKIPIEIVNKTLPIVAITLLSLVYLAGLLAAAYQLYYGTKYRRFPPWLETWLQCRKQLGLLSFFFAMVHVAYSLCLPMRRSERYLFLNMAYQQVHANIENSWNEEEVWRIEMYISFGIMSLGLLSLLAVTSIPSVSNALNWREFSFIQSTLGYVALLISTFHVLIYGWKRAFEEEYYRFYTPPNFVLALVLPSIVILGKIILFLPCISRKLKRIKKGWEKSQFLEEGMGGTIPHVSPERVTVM

T2: hSTEAP3 fused to GFP (Homo sapiens, UniProt Q658P3)
T2 construct: expressed in transfected cells; host or cells: HEK293
T2 sequence (Q658P3 1-488): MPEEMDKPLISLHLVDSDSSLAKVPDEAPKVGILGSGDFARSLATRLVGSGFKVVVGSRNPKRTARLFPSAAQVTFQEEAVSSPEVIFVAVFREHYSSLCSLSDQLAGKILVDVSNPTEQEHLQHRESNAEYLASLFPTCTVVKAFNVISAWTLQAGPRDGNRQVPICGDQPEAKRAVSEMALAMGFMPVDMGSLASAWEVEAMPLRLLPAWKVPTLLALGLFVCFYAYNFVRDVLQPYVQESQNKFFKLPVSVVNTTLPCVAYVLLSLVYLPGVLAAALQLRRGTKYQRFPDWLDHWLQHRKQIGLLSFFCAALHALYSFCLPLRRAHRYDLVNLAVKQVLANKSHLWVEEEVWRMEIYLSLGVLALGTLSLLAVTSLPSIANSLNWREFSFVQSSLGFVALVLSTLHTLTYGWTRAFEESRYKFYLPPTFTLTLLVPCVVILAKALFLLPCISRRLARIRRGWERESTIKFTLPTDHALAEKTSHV

T3: hSTEAP4 fused to GFP (Homo sapiens, UniProt Q687X5)
T3 construct: expressed in transfected cells; host or cells: HEK293
T3 sequence (Q687X5 1-459): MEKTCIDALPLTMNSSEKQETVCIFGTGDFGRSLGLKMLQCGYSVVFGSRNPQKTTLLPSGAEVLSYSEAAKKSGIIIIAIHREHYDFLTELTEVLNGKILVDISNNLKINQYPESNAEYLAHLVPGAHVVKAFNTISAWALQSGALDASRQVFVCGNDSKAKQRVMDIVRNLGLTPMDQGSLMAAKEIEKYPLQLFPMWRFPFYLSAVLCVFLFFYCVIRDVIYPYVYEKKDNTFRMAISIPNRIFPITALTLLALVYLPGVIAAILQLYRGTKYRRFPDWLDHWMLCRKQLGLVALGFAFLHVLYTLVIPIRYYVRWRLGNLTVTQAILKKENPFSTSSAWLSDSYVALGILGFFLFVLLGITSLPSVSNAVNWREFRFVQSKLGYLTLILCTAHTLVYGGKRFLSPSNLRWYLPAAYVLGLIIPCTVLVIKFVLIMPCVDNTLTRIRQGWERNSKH

B1: H2M7810N: anti-STEAP2 antibody, HCVR/LCVR SEQ ID NOs 346/354 (antibody, V domains shown)
VH: QVQLVESGGGVVQPGRSLRLSCAVSGFTSSTYGMNWVRQAPGKGLEWVAVISYDGSNKYYADSVKGRFTISRDNSKNTLYLQMNSLRPEDTAVYYCARGRYFDLWGRGTLVTVSS
VL: DIQMTQSPSTLSASVGDRVTITCRASQIISSWLAWYQQKPGKAPKLLIYKASSLASGVPSRFSGSGSGTEFTLTISSLQPDDFATYYCQQYKSYSYTFGQGTKLEIK
B2: H1M7814N: anti-STEAP2 antibody, mouse IgG1 Fc, HCVR/LCVR SEQ ID NOs 218/226 (antibody, V domains shown)
VH: QVQLVESGGGVVQPGRSLRLSCVASGFTISSYGMNWVRQAPGKGLEWVAVISYDGGNKYSVDSVKGRFTISRDNSKNTLYLQMNSLRAEDSAVYYCARGRYFDLWGRGTLVTVSS
VL: DIQMTQSPSTLSASVGDRVTITCRASQSISSWLAWYQQKPGRAPNLLISKASSLKSGVPSRFSGSGSGTEFTLTVSSLQPDDFATYYCQQYYSYSYTFGQGTKLEIK
modifications: mouse IgG1 Fc
B3: H2M7807N: anti-STEAP2 antibody, HCVR/LCVR SEQ ID NOs 314/322 (antibody, V domains shown)
VH: QVQLVESGGGVVQPGRSLRLSCAVSGFTSSTYGMNWVRQAPGKGLEWVAVISYDGSNKYYADSVKGRFTISRDNSKNTLYLQMNSLRPEDTAVYYCARGRYFDLWGRGTLVTVSS
VL: DIQMTQSPSTLSASVGDRVTITCRASQIISSWLAWYQQKPGKAPKLLIYKASSLASGVPSRFSGSGSGTEFTLTISSLQPDDFATYYCQQYKSYSYTFGQGTNLEIK
B4: H2M7811N: anti-STEAP2 antibody, HCVR/LCVR SEQ ID NOs 362/370 (antibody, V domains shown)
VH: QVQLVESGGGVVQPGRSLRLSCAVSGFTSSTYGMNWVRQAPGKGLEWVAVISFDGSNKYYADSVKGRFTISRDNSKNTLYLQMSSLRPEDTAVYYCARGRYFDLWGRGTLVTVSS
VL: DTQMTQSPSTLSASVGDRVTITCRASQIISSWLAWYQQKPGKAPKLLIYKASSLASGVPSRFSGSGSGTEFTLTISSLQPDDFATYYCQQYKSYSYTFGQGTNLEIK
B5: H1H11162N: human-Fc anti-STEAP2 antibody, HCVR/LCVR SEQ ID NOs 250/258 (antibody, V domains shown)
VH: QVQLQQSGPGLVKPSQTLSLTCAISGDSVSSNRAAWNWIRQSPSRGLQWLGRTYYRSKWYNDYAVSLRSRITINPVTSKNQVALHMNSVTPEDTAVYYCARAGIVVVPGPETFYYYDHGLDVWGQGTTVTVSS
VL: DIQMTQSPSSLSASVGDRVTITCRASQSIRSYLNWYQQKPGKAPELLIHAASSLQSGVPSRFSGSGSGTDFTLTISSLQPEDFASYYCQQSYSAPPITFGQGTRLEIK
modifications: human Fc
B6: H1H7809N: human-Fc anti-STEAP2 antibody, HCVR SEQ ID NO: 330 (antibody, V domains shown)
VH: QVQLVESGGGVVQPGRSLGLSCAASGFTFSSYGMHWVRQAPGKGLEWVAVIWYDGSNKYYVDSVKGRFTISRDNSKNTLYLQMNSLRAEDTAVYYCAREGLRFLENYYYYYGMDVWGQGTTVTVSS
VL: EIVLTQSPGTLSLSPGERATLSCRASQSISSTYLAWYQQRPGQAPRLLIYGASSRATGIPDRFSGSGSGTDFTLTISRLEPEDFAVYYCQQYGTSPYTFGQGTKLEIK

Key:
[1] = target: T4, hSTEAP1 fused to GFP (Homo sapiens, UniProt Q9UHE8); assay: Specificity: binding to HEK293 cells transfected with hSTEAP1-GFP; parameters: key: Wells with GFP positive cells that bound anti STEAP2 antibodies were scored as positive (+); those that did not bind anti STEAP2 antibodies were scored as negative (−); settings: transient transfection, 48 h
T4 construct: expressed in transfected cells; host or cells: HEK293
Protocol: (§1) Selected STEAP2 antibodies were then tested for binding to other human (h) STEAP family members (STEAP1, STEAP3, and STEAP4). To assess anti STEAP2 antibody specificity, plasmid constructs expressing hSTEAP1, hSTEAP2, hSTEAP3 or hSTEAP4 fused to Green Fluorescent Protein (GFP) were transiently introduced into HEK293 cells via lipofectamine 2000 based methodology. After 48 h, transiently transfected cells were stained with anti STEAP2 antibodies and imaged as described above for the internalization assay.

[2] = target: T1, hSTEAP2 fused to GFP; assay: Specificity: binding to HEK293 cells transfected with hSTEAP2-GFP; parameters: key: Wells with GFP positive cells that bound anti STEAP2 antibodies were scored as positive (+); those that did not bind anti STEAP2 antibodies were scored as negative (−); settings: transient transfection, 48 h
Protocol: as §1

[3] = target: T2, hSTEAP3 fused to GFP; assay: Specificity: binding to HEK293 cells transfected with hSTEAP3-GFP; parameters: key: Wells with GFP positive cells that bound anti STEAP2 antibodies were scored as positive (+); those that did not bind anti STEAP2 antibodies were scored as negative (−); settings: transient transfection, 48 h
Protocol: as §1

[4] = target: T3, hSTEAP4 fused to GFP; assay: Specificity: binding to HEK293 cells transfected with hSTEAP4-GFP; parameters: key: Wells with GFP positive cells that bound anti STEAP2 antibodies were scored as positive (+); those that did not bind anti STEAP2 antibodies were scored as negative (−); settings: transient transfection, 48 h
Protocol: as §1

[5] = tested on: FADU cells (STEAP2 negative); assay: FACS binding to STEAP2-negative FADU cells; settings: human-Fc antibodies
Protocol: (§2) The ability of anti-STEAP2 antibodies to selectively bind to human six-transmembrane epithelial antigen of prostate 2 (STEAP2) endogenously expressing cell lines was determined via FACS analysis.
(§3) Briefly, 1×10^5 cells were incubated with 10 μg/ml of anti STEAP2 antibodies, or isotype control antibodies for 30 min on ice in antibody dilution buffer. Following one wash with antibody dilution buffer, cells were incubated with 10 μg/ml of PE conjugated anti-human or anti mouse Fc secondary antibodies for 30 min on ice. Following one additional wash, samples were incubated with Cytofix (1% formaldehyde) for 20 minutes. After one final wash, samples were filtered through a Pall 96 well filtration block, run on a Hypercyt® cytometer and analyzed in ForeCyt™ (IntelliCyt, Albuquerque, N. Mex.). Mean fluorescence intensities (MFI) were expressed as fold change above unstained levels (background). The average fold above background at antibody concentrations of 100-300 nM were determined. For cell binding EC50 determinations, mAb concentrations ranged from 300 nM to […] and EC50 values were determined from a four-parameter logistic equation over a 12-point response curve (GraphPad Prism).

[6] = tested on: SKBR3 cells (STEAP2 negative); assay: FACS binding to STEAP2-negative SKBR3 cells; settings: human-Fc antibodies
Protocol: as §2, §3

[7] = tested on: Raji cells (STEAP2 negative); assay: FACS binding to STEAP2-negative Raji cells; settings: human-Fc antibodies
Protocol: as §2, §3

[8] = tested on: C4-2 cells (high-STEAP2 expressing); assay: Internalization and total binding on C4-2 cells (imaging, qualitative score); assay type: cell-based, human; parameters: key: − (no internalization or binding); +(weak internalization or binding); ++(moderate internalization or binding); +++(robust internalization or binding); settings: 10 μg/ml antibody
Protocol: Briefly, 20,000 C4-2 cells were seeded in PDL coated 96 well plates. The next day, cells were incubated with anti-human STEAP2 antibodies (10 μg/ml) for 30 min on ice followed by two PBS washes. Cells were then incubated with alexa488-conjugated anti-hFc Fab secondary antibody for 30 minutes on ice, followed by two additional PBS washes. Antibodies were allowed to internalize for 1 h at 37° C. in internalization buffer (PBS+2% FBS) or were maintained at 4° C. Cells were fixed in 4% formaldehyde, nuclei were stained with DRAQ5 (Cell signaling), and images were acquired on the ImageXpress micro XL (Molecular Devices).
A qualitative visual assessment of the total binding intensity and the intensity of antibodies that had internalized into vesicles was performed and scored according to the following criteria: − (no internalization or binding), +(weak internalization or binding), ++(moderate internalization or binding) and +++(robust internalization or binding).

T4 sequence (Q9UHE8 whole entry, the tested form may be a part): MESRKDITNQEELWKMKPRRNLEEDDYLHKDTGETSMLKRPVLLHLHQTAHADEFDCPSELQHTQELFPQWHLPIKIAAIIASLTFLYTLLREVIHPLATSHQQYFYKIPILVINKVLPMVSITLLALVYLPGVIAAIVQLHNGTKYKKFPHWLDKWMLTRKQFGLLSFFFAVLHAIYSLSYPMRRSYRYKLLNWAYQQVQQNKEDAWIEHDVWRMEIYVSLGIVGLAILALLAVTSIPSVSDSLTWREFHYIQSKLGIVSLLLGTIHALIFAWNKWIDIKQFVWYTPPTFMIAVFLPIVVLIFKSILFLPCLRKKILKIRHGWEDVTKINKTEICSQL

Molecule	Binding to hSTEAP1-GFP transfected HEK293 cells [1]	Binding to hSTEAP2-GFP transfected HEK293 cells [2]	Binding to hSTEAP3-GFP transfected HEK293 cells [3]	Binding to hSTEAP4-GFP transfected HEK293 cells [4]	FADU Avg F.A.B (Fold Above Background) [5]	SKBR3 Avg F.A.B (Fold Above Background) [6]	Raji Avg F.A.B (Fold Above Background) [7]	Internalization (37° C., 1 h) Qualitative Score [8]	Total Binding (4° C.) Qualitative Score [8]
B1	−	+	−	−					
B2	−	+	−	−					
B3	−	+	−	−					
B4	−	+	−	−					
B5					3 fold	3 fold	2 fold	+++	+++
B6					21 fold	37 fold	3 fold		
